± gives the half width of the 95% confidence interval.

Data set [1] in a line: folding stability dG unfold (combined trypsin and chymotrypsin); higher = more stable. In a few lines: (§1)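 Unfolding free energy was derived, per protease or combined, against a sequence-predicted unfolded-state K50 and a shared folded-state K50, starting from K50 inferred by Bayesian fitting of sequencing counts. Digestion with trypsin and chymotrypsin was carried out on designed mini-proteins under 80 residues without cysteine in a PA-tagged cDNA display construct. Only designs with AlphaFold2 dimer inter-PAE above 15 were kept.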

Data set [2] is described as follows: folding stability dG unfold from trypsin proteolysis; higher = more stable. In a few lines: as §1
A short description of data set [3]: folding stability dG unfold from chymotrypsin proteolysis; higher = more stable. An outline of the steps:
as §1

On to “SMPIEVRVDLERLEDGTLLAVIEIRHPDVQVAEDAAIELARELFPEDVELRIETTPDGRVIAPILLPLPESA [r9_646_TrMRF]”, for which the “folding stability dG unfold” value in data set [1] came out at 2.58 ± 0.22 kcal/mol; in data set [2], 3.14 ± 0.14 kcal/mol; in data set [3], 1.74 ± 0.17 kcal/mol.

Consider “SMPKKIIVLEVDEEEIKEFLEKLELGEDTEVKILLSFPDGKTALLEIGPNEIKSIKPIDAIPEKAYIVIASA [r9_849_TrMRF]”, for which the “folding stability dG unfold” value in data set [1] amounted to 1.08 ± 0.2 kcal/mol; in data set [2], 1.71 ± 0.14 kcal/mol; in data set [3], 0.755 ± 0.14 kcal/mol.

On to “SMPLPFEATVTVPVRDEETGETYTVTVKVEAVNPAVPRPLPDGSIEYEPIPLETVLEIVEKAAEELAKALSA [r9_698_TrMRF]”, for which the “folding stability dG unfold” value in data set [1] came to 1.56 ± 0.14 kcal/mol; in data set [2] it was 1.27 ± 0.074 kcal/mol; in data set [3], 1.55 ± 0.058 kcal/mol.

Take “SMQINVERNPENGTVIIHIPMEDMPPENIREILKDLPPNNKRVTIHMHDPPYMRWLKELAKEKGFPIKITSA [r9_919_TrROS]”: the “folding stability dG unfold” value turned out to be 0.623 ± 0.15 kcal/mol in data set [1], 0.824 ± 0.098 kcal/mol in data set [2] and 0.453 ± 0.21 kcal/mol in data set [3].

For “SMRVVLVRPVPPELKEAELELRLPLPDGSEVEVKAETGEDFVVVTIELDDESAAEAVVEELEKLLEELLGSA [r9_790_TrMRF]”, the “folding stability dG unfold” value in data set [1] amounted to 1.13 ± 0.053 kcal/mol; in data set [2] it was 0.926 ± 0.019 kcal/mol; in data set [3], 1.17 ± 0.034 kcal/mol.

In the case of “SMSEKVEIDPAAIAEALKAGTEYEFDIKVTVTLFDPSNGKKVSTEEKVVKVKLKIPPPSPLPDPKNGYLLSA [r9_396_JUSTAS]”, the “folding stability dG unfold” value in data set [1] turned out to be 1.29 ± 0.2 kcal/mol; in data set [2] it was 1.11 ± 0.038 kcal/mol; in data set [3], 1.4 ± 0.079 kcal/mol.

“SMSEVVEESEFNGEKVITIKVTLPDGTPVTVTITLSPEGEGTVTTVPPSSSTSTTTTVPVSQVDEVLEALSA [r9_91_JUSTAS]”: the “folding stability dG unfold” value in data set [1] came out at 1.61 ± 0.074 kcal/mol; in data set [2] it was 1.95 ± 0.061 kcal/mol; in data set [3], 1.4 ± 0.031 kcal/mol.

Turning to “SMSPEARALARELAERLRELFPGAEIEIRVEVEVNEDGEVTIRVEIRVRPAPPPEVRVVRDEDGRERRLRSA [r9_82_TrROS_Hall]”, the “folding stability dG unfold” value in data set [1] was found to be 1.8 ± 0.074 kcal/mol; in data set [2], 1.09 ± 0.1 kcal/mol; in data set [3], 2.04 ± 0.04 kcal/mol.

In the case of “SMSRPVEVEFELPLEGEGPVRLRATLVVDPESGVVEIPVRARFPEREEDVDLPPELLERLARRVLEELGGSA [r9_1136_TrMRF]”, the figures for the “folding stability dG unfold” value in data set [1], in data set [2] and in data set [3] were 1.1 ± 0.034 kcal/mol, 0.744 ± 0.031 kcal/mol and 1.25 ± 0.034 kcal/mol, respectively.

“SMTIEGMSPREAVRNIIEEFIEMFEANGNPPMPIKIRFPGNGKPIYEFPIQSKEQLLDQIENGVPVSIEFSA [r9_718_TrROS]”: the “folding stability dG unfold” value in data set [1] was 0.183 ± 0.1 kcal/mol; in data set [2], 0.604 ± 0.027 kcal/mol; in data set [3], -0.498 ± 0.18 kcal/mol.

As to “SMTIKLPSKDFKLETLPDGTIKLTVKEPDGTVVTYTFPKGDKITKIEKITPDTIKLTFEKKPRLNPEILLSA [r9_501_JUSTAS]”, the “folding stability dG unfold” value in data set [1] was 3.07 ± 0.22 kcal/mol; in data set [2] it was 2.16 ± 0.097 kcal/mol; in data set [3], 3.65 ± 0.053 kcal/mol.

For the sequence “SMTIRVEGVPPGVTAEELAARLRAELEAAGYEVTSIKVTRRADGSLVVEIEVKPAPPPEPVEVVEEREEESA [r9_953_TrROS_Hall]”, the “folding stability dG unfold” value in data set [1] worked out at 3.62 ± 0.17 kcal/mol; in data set [2], 3.4 ± 0.13 kcal/mol; in data set [3], 3.75 ± 0.16 kcal/mol.

As to “SMTITFKTEEEAKKAAEELLKELEKKLKPGQKIKITVTTEDGKTITIEIEIKPPKKEVEVDEETGELKEKSA [r9_596_TrROS_Hall]”, the “folding stability dG unfold” value in data set [1] is 1.97 ± 0.18 kcal/mol; in data set [2] it was 0.898 ± 0.073 kcal/mol; in data set [3], 2.26 ± 0.081 kcal/mol.

Consider “SMTITIVVEAPPEEAKEKAEELEKELKEKLDKLREEAKKKGLSEEEIEEELKIKIKVVVVSKEDLEKLKPSA [r9_961_TrROS_Hall]”, for which the “folding stability dG unfold” value in data set [1] was 0.431 ± 0.13 kcal/mol; in data set [2] it was 0.989 ± 0.082 kcal/mol; in data set [3], -0.317 ± 0.11 kcal/mol.

Turning to “SMTLTETKVLTTETLSGEEFAKRSGVPVEEIRKSGVKYNVTVTPVEVTYYDPETGKTYKRTSTTVTITPESA [r9_382_JUSTAS]”, the “folding stability dG unfold” value in data set [1] was found to be 0.686 ± 0.073 kcal/mol; in data set [2] it was 0.354 ± 0.083 kcal/mol; in data set [3] it was 0.842 ± 0.11 kcal/mol.

Take “SMTLTLEDGKLTLTVTETRTTVERDAADPGKWTTRTETRTVTLTLPLEDLEALKKLLEALPPGARVELVPSA [r9_476_TrROS_Hall]”: the “folding stability dG unfold” value was found to be 3.91 ± 0.29 kcal/mol in data set [1], 3.23 ± 0.09 kcal/mol in data set [2] and 4.9 ± 0.26 kcal/mol in data set [3].

On to “SMTLVLENEDGSLYRIEFDEETGEIYIYNAETGEKYRITFKDGKTEEINAKDLSLEELKALPGLKIEPVPSA [r9_205_TrROS_Hall]”, for which the “folding stability dG unfold” value in data set [1] came to 3.13 ± 0.056 kcal/mol; in data set [2], 2.74 ± 0.061 kcal/mol; in data set [3] it was 3.285 ± 0.023 kcal/mol.

In the case of “SMTTTTLPDGTTVTTLSDGTVKTVTHYPDSVVTETSPITYKLPDGREFTTKEEAEAYEKETGIPVSPALASA [r9_660_JUSTAS]”, the “folding stability dG unfold” value in data set [1] was 0.4 ± 0.16 kcal/mol; in data set [2], 0.62 ± 0.036 kcal/mol; in data set [3] it was 0.255 ± 0.23 kcal/mol.

Consider “SMTVTTDPSSLTFTLPPTYTSVEQAREALEELGFKLPSSVKSITIESVDEGKNLNTITVTFDDPEALKKLSA [r9_820_JUSTAS]”, for which the “folding stability dG unfold” value in data set [1] stood at 0.913 ± 0.082 kcal/mol; in data set [2] it was 0.74 ± 0.03 kcal/mol; in data set [3], 0.922 ± 0.089 kcal/mol.

On to “SMTVVTVEKTPDGGVTITVYVPETGEEVEIPVTDPEVQKKATEDPNTTVKVPKEVLESFYPDRITSLSYTSA [r9_390_JUSTAS]”, for which the “folding stability dG unfold” value in data set [1] was 0.0747 ± 0.19 kcal/mol; in data set [2], 0.134 ± 0.098 kcal/mol; in data set [3], -0.169 ± 0.22 kcal/mol.

Take “SMVIEIPDGTPLEEIIKKVKEAKEKGEPMEVVVTVPNDESVIQALKEAGFEVEVEKDEVKNVTLYKVKLPSA [r9_759_JUSTAS]”: the “folding stability dG unfold” value in data set [1] was 2.59 ± 0.076 kcal/mol; in data set [2] it was 2.7 ± 0.15 kcal/mol; in data set [3], 2.53 ± 0.025 kcal/mol.

Regarding “SMVKTIEIEIVLPPGEWVKLTEEDIKEKIEKELPGWKILSIDITKEERLVPGGTEPLVVIKAKILVEKKESA [r9_1189_JUSTAS]”, the “folding stability dG unfold” value in data set [1] was found to be 3.83 ± 0.21 kcal/mol; in data set [2], 4.26 ± 0.26 kcal/mol; in data set [3] it was 3.19 ± 0.14 kcal/mol.

For the sequence “SMVLARIKVRVRDPVTGEELDVEIDLLAPVEVAEEAAEEFRKLFPGLEVEVDLVEVVPLPPVTPEQLAKESA [r9_421_TrMRF]”, the “folding stability dG unfold” value was found to be 2.48 ± 0.083 kcal/mol in data set [1], 1.82 ± 0.046 kcal/mol in data set [2] and 2.823 ± 0.017 kcal/mol in data set [3].

“SMVTETSEEVKLPSPVRLLIDKKITTFPESGVVEVPTLVTVIPPSGPDTTLPYRVLYTINDDTYTEKRLLSA [r9_154_JUSTAS]”: the “folding stability dG unfold” value in data set [1] is -0.125 ± 0.14 kcal/mol; in data set [2], -0.277 ± 0.085 kcal/mol; in data set [3] it was -0.0857 ± 0.12 kcal/mol.

“SMVTVDEKEDPNSDNKIYTVSLPENGEDVITITKAPDGTTTVTLHYPDGSTTTKTFPGNTPVTEAIKLLLSA [r9_346_JUSTAS]”: the “folding stability dG unfold” value in data set [1] was determined as 1.74 ± 0.15 kcal/mol; in data set [2], 2.23 ± 0.12 kcal/mol; in data set [3], 1.39 ± 0.083 kcal/mol.

Take “SMVTVERPESTKTIDAPPSATVEFDPATGTLRVYSPDGTATTVPLSPTWSIQPSDNSVTVTAPPASPAAPSA [r9_653_JUSTAS]”: the “folding stability dG unfold” value in data set [1] was 0.421 ± 0.066 kcal/mol; in data set [2] it was 0.056 ± 0.059 kcal/mol; in data set [3], 0.669 ± 0.1 kcal/mol.

The record behind these values is the supplement of paper PMC12764529.
